Results as given in the RNAGym collection of RNA variant scans (doi:10.1101/gr.219683.116).

B1: mRNA-splicing (parent)
chain: AGUUGCUGCUGGGAGCUCCAGCACAGUGAAAUGGACAGAAGGGCAGAGCAA

Variants of: B1
Test: exon inclusion enrichment index; higher = more inclusion; WT1 exon 5 minigene, HEK293

| Variant | exon inclusion enrichment index |
| --- | --- |
| G5C C6U G8U U10C | 1.11 |
| G5C C6U G8C C9U U10C G43A C44G | 3.59 |
| G5C C6U G8C C9U U10C G43A C44A | 3.42 |
| G5C C6U G8C C9U U10C G43A C44U | 2 |
| G5U G8C C9A | 0.689 |
| G5U G8C C9G | 1.51 |
| G5U G8C C9U | 0.417 |
| G5U G8U C9U A23U C24A | 0.0491 |
| G5U G8U C9U A23U C24U | 0.00337 |
| G5U G8U C9U A23U C24G | 0.223 |
| G5U G8U C9U A31C U32C | 0.544 |
| G5U G8U C9U A31C U32G | 0.188 |
| G5U G8U C9U A31C U32A | 0.077 |
| G5C U7A G8A U10A | 0.0423 |
| G5C C6U U10C | 1.82 |
| G5U C6U U7A C9A U10A | 0.0191 |
| G5C C6U G8C C9U U10C G43C | 1.75 |
| G5C C6U G8C C9U U10C G43A | 3.52 |
| G5C C6U G8C C9U U10C G43U | 1.51 |
| G5C C6U G8C C9U U10C U27A G28C | 2.07 |
| G5C C6U G8C C9U U10C U27A G28U | 0.824 |
| G5C C6U G8C C9U U10C U27A G28A | 2.06 |
| G5C C6U U7A G8U C9A | 0.195 |
| G5U G8U C9U A20C | 0.124 |

| Variant | exon inclusion enrichment index |
| --- | --- |
| G5U G8U C9U A20U | 0.191 |
| G5U G8U C9U A20G | 0.322 |
| G5C C6U U7A G8A C9U U10C | 0.757 |
| G5U C6U U7C C9A U10C | 2.91 |
| G5C U7A U10C | 1.62 |
| G5U G8U C9U A37G | 0.303 |
| G5U G8U C9U A37C | 0.465 |
| G5U G8U C9U A37U | 0.104 |
| G5C C6U G8C C9U U10C U27G | 0.69 |
| G5C C6U G8C C9U U10C U27A | 2.29 |
| G5C C6U G8C C9U U10C U27C | 3.63 |
| G5U C6U G8C C9U U10C | 0.672 |
| G5U G8U C9U A39G | 0.0522 |
| G5U G8U C9U A39C | 0.0249 |
| G5U G8U C9U A39U | 0.00188 |
| G5C C6U G8U C9A U10C | 0.494 |
| G5C C6U U7G C9U U10C | 0.743 |
| G5C U7C G8C C9U U10C | 0.0413 |
| G5C C6U G8U C9U | 0.106 |
| G5C C6U G8C C9U U10C G46A A47U | 2.29 |
| G5C C6U G8C C9U U10C G46A A47C | 2.56 |
| G5C C6U G8C C9U U10C G46A A47G | 0.717 |
| G5C U7G G8C C9U U10C | 0.323 |
| G5U G8U C9U A25U G26U | 0.0927 |

| Variant | exon inclusion enrichment index |
| --- | --- |
| G5U G8U C9U A25U G26A | 0.176 |
| G5U G8U C9U A25U G26C | 0.219 |
| G5U G8U C9U A39C A40U | 0.141 |
| G5U G8U C9U A39C A40C | 0.321 |
| G5U G8U C9U A39C A40G | 0.162 |
| G5C C6U G8C C9U U10C U17G | 1.65 |
| G5C C6U G8C C9U U10C U17C | 1.43 |
| G5C C6U G8C C9U U10C U17A | 1.95 |
| G5C C6U U7G C9A | 1.42 |
| G5U G8U C9U A14U | 0.0126 |
| G5U G8U C9U A14G | 0.0707 |
| G5U G8U C9U A14C | 0.108 |
| G5C C6U G8C C9U U10C G43U C44A | 0.0354 |
| G5C C6U G8C C9U U10C G43U C44U | 0.567 |
| G5C C6U G8C C9U U10C G43U C44G | 0.398 |
| G5U C6U U7A G8U C9A | 0.0673 |
| G5U C6U U7A G8U C9U | 0.0321 |
| G5C C6U U7C U10C | 3.59 |
| G5U C6A G8U C9U | 0.0752 |
| G5C U7A G8C C9U U10C | 0.259 |
| G5C C6U G8C C9U U10G G11U | 1.56 |
| G5C C6U G8C C9U U10G G11A | 2 |
| G5C C6U G8C C9U U10G G11C | 2.13 |
| G5U G8U C9U A30C | 0.172 |

| Variant | exon inclusion enrichment index |
| --- | --- |
| G5U G8U C9U A30G | 0.109 |
| G5U G8U C9U A30U | 0.0559 |
| G5U C9G | 0.253 |
| G5U C9A | 0.991 |
| G5U C9U | 0.393 |
| G5C C6U G8C C9U U10C G42U | 2.42 |
| G5C C6U G8C C9U U10C G42C | 3.76 |
| G5C C6U G8C C9U U10C G42A | 3.34 |
| G5C C6U U7A G8C C9U U10C | 1.66 |
| G5U G8U C9G U10A | 0.128 |
| G5U G8U C9G U10C | 0.741 |
| G5U G8U C9G U10G | 0.108 |
| G5U G8U C9U A37U G38A | 0.0389 |
| G5U G8U C9U A37U G38C | 0.0749 |
| G5U G8U C9U A37U G38U | 0.0252 |
| G5C G8U C9U | 0.0356 |
| G5C C6U U7G G8U C9U U10C | 1.07 |
| G5U G8U C9A | 0.194 |
| G5U G8U C9U | 0.16 |
| G5U G8U C9G | 0.267 |
| G5C C6U G8C C9U U10C G42C G43A | 2.79 |
| G5C C6U G8C C9U U10C G42C G43C | 2.72 |
| G5C C6U G8C C9U U10C G42C G43U | 2.87 |
| G5U G8U C9U A23G C24G | 0.604 |

| Variant | exon inclusion enrichment index |
| --- | --- |
| G5U G8U C9U A23G C24A | 0.532 |
| G5U G8U C9U A23G C24U | 0.0193 |
| G5U G8U C9U A29C A30U | 0.0831 |
| G5U G8U C9U A29C A30C | 0.344 |
| G5U G8U C9U A29C A30G | 0.414 |
| G5U G8U C9A U10C | 0.61 |
| G5U G8U C9A U10G | 0.0162 |
| G5U G8U C9A U10A | 0.0322 |
| G5C C6U G8C C9U U10C G46C A47U | 1.64 |
| G5C C6U G8C C9U U10C G46C A47C | 1.76 |
| G5C C6U G8C C9U U10C G46C A47G | 2.72 |
| G5C C6U U7C G8C C9U U10C | 1.73 |
| G5U G8U C9U A35C | 0.0257 |
| G5U G8U C9U A35G | 0.0347 |
| G5U G8U C9U A35U | 0.0145 |
| G5C C6U G8C C9U U10C U32A | 1.46 |
| G5C C6U G8C C9U U10C U32G | 0.212 |
| G5C C6U G8C C9U U10C U32C | 3.26 |
| G5U G8U C9U A20U G21U | 0.0618 |
| G5U G8U C9U A20U G21A | 0.0475 |
| G5U G8U C9U A20U G21C | 0.1 |
| G5C C6U G8C C9U U10C U32C G33A | 0.84 |
| G5C C6U G8C C9U U10C U32C G33U | 1.28 |
| G5C C6U G8C C9U U10C U32C G33C | 2.66 |

| Variant | exon inclusion enrichment index |
| --- | --- |
| G5C U7C U10C | 0.696 |
| G5U G8U C9U A40C G41C | 0.711 |
| G5U G8U C9U A40C G41U | 0.079 |
| G5U G8U C9U A40C G41A | 0.0439 |
| G5C G8A U10A | 0.0176 |
| G5C C6U G8C C9U U10C U17C C18G | 2.39 |
| G5C C6U G8C C9U U10C U17C C18U | 1.9 |
| G5C C6U G8C C9U U10C U17C C18A | 1.45 |
| G5U C6U G8U C9U | 0.0204 |
| G5C C6U G8U C9G U10C | 0.68 |
| G5U G8A C9G | 0.061 |
| G5U G8A C9U | 0.205 |
| G5U G8A C9A | 0.204 |
| G5U G8U C9U A37G G38U | 0.0298 |
| G5U G8U C9U A37G G38A | 0.184 |
| G5U G8U C9U A37G G38C | 0.241 |
| G5U G8U C9U A35G C36A | 0.0301 |
| G5U G8U C9U A35G C36G | 0.00476 |
| G5U G8U C9U A35G C36U | 0.0033 |
| G5U G8U C9U A39U A40G | 0.0207 |
| G5U G8U C9U A39U A40C | 0.287 |
| G5U G8U C9U A39U A40U | 0.0352 |
| G5U G8U C9U A40G G41C | 0.76 |
| G5U G8U C9U A40G G41U | 0.107 |

| Variant | exon inclusion enrichment index |
| --- | --- |
| G5U G8U C9U A40G G41A | 0.0719 |
| G5U C6G G8C C9U U10C | 1.09 |
| G5U G8U C9U A40U G41A | 0.00332 |
| G5U G8U C9U A40U G41C | 0.508 |
| G5U G8U C9U A30U A31C | 0.0725 |
| G5U G8U C9U A30U A31U | 0.0523 |
| G5U G8U C9U A30U A31G | 0.15 |
| G5U G8U C9U A25G | 0.618 |
| G5U G8U C9U A25C | 0.793 |
| G5U G8U C9U A25U | 0.289 |
| G5C C6U G8C C9U U10C U32A G33A | 0.758 |
| G5C C6U G8C C9U U10C U32A G33C | 2.37 |
| G5C C6U G8C C9U U10C U32A G33U | 1.25 |
| G5U C6A U7G C9A | 0.0473 |
| G5U G8U C9U A31U | 0.15 |
| G5U G8U C9U A31G | 0.187 |
| G5U G8U C9U A31C | 0.202 |
| G5C C6U U7A U10C | 0.444 |
| G5C C6U G8C C9U U10C G43C C44U | 1.6 |
| G5C C6U G8C C9U U10C G43C C44A | 3.17 |
| G5C C6U G8C C9U U10C G43C C44G | 4.6 |
| G5U C6A U7G G8U C9U | 0.013 |
| G5C C6U G8C C9U U10C G41U G42A | 0.727 |
